Measured values reported in patent US20090074771A1 (MacroGenics, published 2009).
Blank lines part the entries; values can stand above or below the molecule they belong to.

Assays:
[1] = biological target: human FcγRIIB (CD32B) on cells (human) (UniProt P31994); experiment: double-staining FACS on CHO cells with full-length FcγRIIB, isotype control pre-incubation
[2] = biological target: T1, soluble extracellular domain of human CD32A-R131 (human, UniProt P12318 34-217); experiment: SPR (BIAcore), antibody captured, soluble monomeric receptor injected
T1 construct: extracellular domain; Monomeric analyte in BIAcore, 100 nM
T1 sequence (looked up): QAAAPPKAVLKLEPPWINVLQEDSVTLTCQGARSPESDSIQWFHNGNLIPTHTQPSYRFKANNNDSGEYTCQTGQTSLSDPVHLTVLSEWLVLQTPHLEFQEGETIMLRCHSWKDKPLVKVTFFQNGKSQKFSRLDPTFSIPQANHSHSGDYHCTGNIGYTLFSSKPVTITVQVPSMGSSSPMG
Protocol: The capturing antibody, a F(ab′)2 fragment of a goat anti-mouse Fc-specific antibody (Jackson Immunoresearch, West Grove, Pa.), was immobilized on the CM-5 sensor chip according to the procedure recommended by the manufacturer. Briefly, the carboxyl groups on the sensor chip surface were activated with an injection of a solution containing 0.2M N-ethyl-N-(3diethylamino-propyl) carbodiimide and 0.05M N-hydroxy-succinimide. The F(ab′)2 fragment was then injected over the activated CM-5 surface in 10 mM sodium-acetate, pH 5.0, at flow rate 5 μl/min for 420 sec, followed by 1 M ethanolamine for deactivation. Binding experiments were performed in HBS-P buffer containing 110 mM HEPES, pH 7.4, 150 mM NaCl, and 0.005% P20 surfactant. Each monoclonal antibody was captured on the CM-5 chip by injecting a 300 nM-antibody solution at flow rate 5 μl/min for 240 sec, followed by an injection of the monomeric soluble receptors at concentration of 100 nM and a flow rate 50 μl/min for 120 sec with dissociation time 180 sec. Regeneration of the F(ab′)2 GAM surface was performed by pulse injection of 50 mM glycine, pH 1.5 and 50 mM NaOH. […] Resulted curves were analyzed by separate ka/kd fit. KD values were calculated as average of four curves at two different concentrations. […]

[3] = biological target: T2, soluble extracellular domain of human FcγRIIB (CD32B), produced in mammalian (293/293H) cells (human, UniProt P31994 43-217); experiment: direct ELISA, receptor-coated plate
T2 construct: extracellular domain; also called mammalian FcγRIIB; soluble monomeric human CD32B
T2 sequence (looked up): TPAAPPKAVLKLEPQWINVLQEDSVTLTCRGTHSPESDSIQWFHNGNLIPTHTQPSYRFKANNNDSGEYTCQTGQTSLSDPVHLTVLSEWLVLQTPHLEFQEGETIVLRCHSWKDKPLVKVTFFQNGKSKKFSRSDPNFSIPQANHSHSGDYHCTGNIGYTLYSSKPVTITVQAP

[4] = biological target: T3, CD32A (H131 form) on THP-1 monocytic cells (human, UniProt P12318 34-317); experiment: FACS on THP-1 cells
T3 construct: whole, on cells
T3 sequence (looked up): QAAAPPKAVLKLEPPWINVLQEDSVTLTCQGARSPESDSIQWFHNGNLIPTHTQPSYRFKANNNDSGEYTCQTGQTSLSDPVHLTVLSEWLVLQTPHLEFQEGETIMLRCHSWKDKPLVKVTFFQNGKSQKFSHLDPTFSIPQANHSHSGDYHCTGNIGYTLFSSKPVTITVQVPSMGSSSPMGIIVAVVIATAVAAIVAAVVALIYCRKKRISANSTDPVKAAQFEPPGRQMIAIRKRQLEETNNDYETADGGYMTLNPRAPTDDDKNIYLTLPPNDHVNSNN
Protocol: Recognition of CD32B on the cell surface. Experiments were carried out to test the ability of the antibodies to discriminate CD32B from CD32A expressed on cells and to recognize the native CD32B molecule on human cell lines.

[5] = biological target: T4, FcγRIIIA coated on ELISA plates (UniProt P08637 17-208, limits assumed); experiment: direct ELISA, receptor-coated plate
T4 construct: 100 ng/well on the plate
T4 sequence (P08637 17-208 limits assumed): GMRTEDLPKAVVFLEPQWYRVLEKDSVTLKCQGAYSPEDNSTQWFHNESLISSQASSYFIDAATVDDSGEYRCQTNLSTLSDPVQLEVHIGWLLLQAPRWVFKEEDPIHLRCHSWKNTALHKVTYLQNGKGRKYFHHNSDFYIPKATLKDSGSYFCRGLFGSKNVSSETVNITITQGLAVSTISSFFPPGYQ

percent of cells stained [1]: 60%
Molecule: aggregated human IgG (ligand)

fold binding relative to AT10, FL18.26 and IV.3 [3]: ≤ 4.5 fold | binding result [4]: no binding
B1: mouse monoclonal antibody produced by clone 2B6 (antibody, V domains shown)
VH: QVQLQQPVTELVRPGASVMLSCKASDYPFTNYWIHWVKQRPGQGLEWIGVIDPSDTYPNYNKKFKGKATLTVVVSSSTAYMQLSSLTSDDSAVYYCARNGDSDYYSGMDYWGQGTSVTVSS
VL: DILLTQSPAILSVSPGERVSFSCRTSQSIGTNIHWYQQRTNGFPRLLIKNVSESISGIPSRFSGSGSGTDFILSINSVESEDIADYYCQQSNTWPFTFGGGTKLEIK
notes: also called 2B6 antibody; m2B6
binding result [2]: no binding (tested: 100 nM soluble receptor)

binding result [5]: no binding
B2: mouse monoclonal antibody produced by clone 3H7 (antibody, V domains shown)
VH: EVKFEESGGGLVQPGGSMKLSCAASGFTFSDAWMDWVRQGPEKGLEWVAEIRNKANNLATYYAESVKGRFTIPRDDSKSSVYLHMNSLRAEDTGIYYCYSPFAYWGQGTLVTVSA
VL: DIQMTQSPSSLSASLGERVSLTCRASQEISGYLSWLQQKPDGTIRRLIYAASTLDSGVPKRFSGSWSGSDYSLTISSLESEDFADYYCLQYVSYPYTFGGGTKLEIK
notes: also called 3H7 antibody; 3H7 supernatant
